Laboratory results: patent US20190142868A1, “METHODS OF TREATING DISEASES ASSOCIATED WITH ILC3 CELLS” (Instituto de Medicina Moleccular, priority 2016, published 2019)

B1: IL-1β: recombinant protein from R&D Systems (401ML005), alarmin (protein, UniProt P10749 118-269, looked up)
Interleukin-1 beta: VPIRQLHYRLRDEQQKSLVLSDPYELKALHLNGQNINQQVIFSMSFVQGEPSNDKIPVALGLKGKNLYLSCVMKDGTPTLQLESVDPKQYPKKKMEKRFVFNKIEVKSKVEFESAEFPNWYISTSQAEHKPVFLGNNSGQDIIDFTMESVSS
B2: IL-33: recombinant protein from R&D Systems (3626ML), alarmin (protein, UniProt Q8BVZ5 1-266, looked up)
Interleukin-33: MRPRMKYSNSKISPAKFSSTAGEALVPPCKIRRSQQKTKEFCHVYCMRLRSGLTIRKETSYFRKEPTKRYSLKSGTKHEENFSAYPRDSRKRSLLGSIQAFAASVDTLSIQGTSLLTQSPASLSTYNDQSVSFVLENGCYVINVDDSGKDQEQDQVLLRYYESPCPASQSGDGVDGKKLMVNMSPIKDTDIWLHANDKDYSVELQRGDVSPPEQAFFVLHKKSSDFVSFECKNLPGTYIGVKDNQLALVEEKDESCNNIMFKLSKI
B3: GDNF: Glial cell-derived neurotrophic factor, a GFRα1 ligand (protein, UniProt P39905 78-211, looked up)
Glial cell line-derived …: SPDKQMAVLPRRERNRQAAAANPENSRGKGRRGQRGKNRGCVLTAIHLNVTDLGLGYETKEELIFRYCSGSCDAAETTYDKILKNLSRNRRLVSDKVGQACCRPIAFDDDLSFLDDNLVYHILRKHSAKRCGCI

Columns and labels:
RET = details: cited from earlier work; for RET autophosphorylation: Tokugawa et al. 2003 (XIB4035, GDNF), Akeno-Stuart et al. 2007 (AST 487)
[1] = system: neurosphere-derived glial cells; test: Activation of neurosphere-derived glial cells, alone or co-cultured with ILC3; assay type: cell-based, mice; details: for innate Il22 in ILC3 co-cultured with glial cells: 24 hours of co-culture, MYD88 dependent; for GFL expression in glial cells: activation of neurosphere-derived glial cells
Protocol: Neurosphere-derived glial cells were obtained as previously described^60. Briefly, total intestines from E14.5 C57BL/6J and Myd88^−/− mice were digested with collagenase D (0.5 mg/mL; Roche) and DNase I (0.1 mg/mL; Roche) in DMEM/F-12, GlutaMAX, supplemented with 1% hepes, streptomycin/penicillin and 0.1% β-mercaptoethanol (Gibco) for approximately 30 minutes at 37° C. under gentle agitation. Cells were cultured during 1 week in a CO2 incubator at 37° C. in DMEM/F-12, GlutaMAX™, streptomycin and penicillin and 0.1% P3-mercaptoethanol (Gibco) supplemented with B27 (Gibco), EGF (Gibco) and FGF2 (Gibco) 20 ng/mL. After 1 week of culture cells were treated with 0.05% trypsin (Gibco), transferred into PDL (Sigma-Aldrich) coated plates and culture in DMEM supplemented with 10% FBS, 1% hepes, glutamine, streptomycin and penicillin and 0.1% β-mercaptoethanol (Gibco) until confluence. Glial cells were activated with TLR2 (5 μg/ml) (Pam3CSK4), TLR3 ([…]) (PolyI:C), TLR4 (50 ng/ml) (LPS), TLR9 ([…]) (DsDNA-EC) ligands from Invivogen and IL-1β (10 ng/mL) (401ML005), IL-18 (50 ng/mL) (B002-5), IL-33 (0.1 ng/mL) (3626ML) recombinant proteins from R&D Systems. Cells were also co-cultured with purified ILC3 from WT and Illb deficient mice. IL-22 expression in glial-ILC3 co-cultures upon TLR4 activation was also performed using GDNF ([…]) (AB-212-NA), NRTN ([…]) (AF-387sp) and ARTN (0.3 μg/mL) (AF-1085-sp) blocking antibodies. Cells were analysed after 24 hours of co-culture.

| Molecule | RET autophosphorylation (RET) | activation of downstream effectors of RET (RET; Akeno-Stuart et al. 2007) | innate Il22 in ILC3 co-cultured with glial cells [1] | GFL expression in glial cells [1] |
| --- | --- | --- | --- | --- |
| CCN(CC)CCCC(C)Nc1cc(/C=C/c2ccccc2Cl)nc2cc(Cl)ccc12 (centres unmarked) [XIB4035, N(4)-(7-chloro-2-[(E)-2-(2-chloro-phenyl)-vinyl]-quinolin-4-yl)-N(1),N(1)-diethyl-pentane-1,4-diamine] | induced | – | – | – |
| CCN1CCN(Cc2ccc(NC(=O)Nc3ccc(Oc4cc(NC)ncn4)cc3)cc2C(F)(F)F)CC1 [AST 487, 1-[4-[(4-ethylpiperazin-1-yl)methyl]-3-(trifluoromethyl)phenyl]-3-[4-[6-(methylamino)pyrimidin-4-yl]oxyphenyl]urea] | inhibit | inhibit | – | – |
| B1 | – | – | induced robust | efficiently controlled |
| B2 | – | – | induced robust | efficiently controlled |
| B3 | induced | – | – | – |
